Laboratory results reported in patent US20220144940A1 (VIELA BIO, published 2022).
Positions count from the first letter of the chain named. Values belong to the binder of their own block, whether it stands above or below them.

Assays:
[1] = molecular target: T1, recombinant human ILT7 protein (human, UniProt P59901 24-446, limits assumed); test: BIAcore SPR, IgG captured on chip, ILT7 protein as analyte, 1:1 model
T1 construct: Soluble recombinant protein used in ProteOn and BIAcore SPR; also called rILT7; Soluble Recombinant Human ILT7
Experimental: (§1) BIAcore (surface plasmon resonance) was used to measure the kinetic rate (kₒₙ, koff) constants for the binding of afucosylated IgG₁ ILT70137 to human ILT7 protein using an IgG-capture assay format. The binding of each concentration of a two-fold dilution series of the ILT7 protein was recorded after first capturing IgG onto the sensor chip surface, followed by either the ILT7 protein or instrument buffer. In between each pair of injections, the IgG capture surface was regenerated. Individual association and dissociation rate constants were then calculated from the resulting binding curves using the Biaevaluation software available through the vendor's software employing a 1:1 fitting model, which included a term to correct for mass transport limited binding, should it be detected. […] The individual errors for kₒₙ and koff were low, and the overall fit to the data was good as judged by Chi2 values of ˜1% of the calculated Rₘₐₓ (maximum response).

[2] = molecular target: T2, cynomolgus ILT7 (cynomolgus, UniProt P59901 24-499 (human entry)); test: cell-based or functional assay
[3] = molecular target: T3, human ILT7 (human, UniProt P59901 24-499); test: cell-based or functional assay
[4] = molecular target: T3, human ILT7; test: flow cytometry (MFI) on cell line stably expressing human ILT7
Experimental: (§2) Binding of afucosylated ILT70137 to ILT7 was determined using cell lines stably expressing human or cynomolgus monkey ILT7. The mean fluorescence intensity of cell-bound antibodies was assessed by flow cytometry. Cells were incubated with increasing concentrations of test antibody ranging from 0.004 to 333.3 nM for 30 minutes at 4° C. After incubation, cells were washed with cold PBS and incubated for 30 minutes at 4° C. with an anti-human-Alexa Fluor 647 antibody. Fluorescent intensity was then determined by FACS and EC₅₀ values were calculated using a non-linear fit equation in GraphPad Prism 6 software.

[5] = molecular target: T1, recombinant human ILT7 protein; test: BIAcore SPR, IgG captured on chip, ILT7 protein as analyte, koff/kon
Experimental: as §1

[6] = molecular target: T2, cynomolgus ILT7; test: flow cytometry (MFI) on cell line stably expressing cynomolgus monkey ILT7
Experimental: as §2

[7] = molecular target: T1, recombinant human ILT7 protein; test: SPR on ProteOn
[8] = molecular target: T2, cynomolgus ILT7; test: FACS on CHO cells expressing recombinant cyno ILT7
[9] = molecular target: T3, human ILT7; test: FACS on CHO cells expressing recombinant human ILT7
[10] = molecular target: T1, recombinant human ILT7 protein; test: SPR on ProteOn, purified IgG on rILT7
[11] = molecular target: T4, HA-tagged human ILT7 on CT-550 cells (human, UniProt P59901 24-499); test: flow cytometry on CT-550 cells expressing human ILT7, anti-human IgG DyLight 649 detection; table 'Mean Ec50 (nM)', n = 2
T4 construct: whole, on cells; CT-550 cells: CT-125 cells (2B4 murine T-cell hybridoma with mouse FcεRIγ and NFAT-GFP reporter) transduced with HA-tagged human ILT7; also called human ILT7-expressing cells; not shown: HA tag
Experimental: (§3) Binding of anti-ILT7 variants and isotype controls on human and cynomolgus ILT7 was assessed by flow cytometry analysis using CT-550 and cynoILT7 CT-125 cells respectively. CT-125 cells were used as control. Cells were resuspended in Blocking Buffer (PBS supplemented with 10% FBS) at a concentration of 5 million cells per mL and transferred into a round-bottom 96-well plates (BD Falcon™ Clear Microtest Plate, BD Biosciences) at 100 μL per well. Anti-ILT7 variants and control antibodies were added onto the cells for 30 min at 4° C. on a plate shaker. Cells were washed three times with PBS and resuspended in Blocking Buffer (100 μL/well). Human IgG binding on cell surface was detected using a secondary anti-human IgG antibody conjugated to DyLight 649 (1 in 1000 dilution). Cells were incubated in the dark for 30 min at 4° C. on a plate shaker. Cells were washed three times with PBS and surface fluorescence was acquired using LSRII Flow Cytometry System and FACSDiva Software (both from BD Biosciences).
In order to determine the binding EC50 of ILT70019, ILT70028, ILT70052, ILT70076, ILT70080, ILT70083, ILT70089, ILT70100, ILT70137, ILT70142 and ILT70144 on cells expressing human ILT7, the candidates were screened for binding on CT-550 cells by flow cytometry. ILT70080 (EC₅₀=0.28 nM), ILT70083 (EC₅₀=0.37 nM), ILT70137 (EC₅₀=0.41 nM), ILT70144, ILT70142, ILT70052, and ILT70100 bound to human ILT7-expressing cells. […] The anti-ILT7 antibodies 7C7 (7C7 is described above in Example 1) and SBI33 (SBI33 refers to the anti-ILT7 antibody ILT7#33 provided in U.S. Published Application No. 2009/0280128) were used as positive controls.

[12] = molecular target: T2, cynomolgus ILT7; test: flow cytometry on CynoILT7 CT-125 cells expressing cynomolgus ILT7, anti-human IgG DyLight 649 detection; table 'Mean Ec50 (nM)', n = 2
Experimental: as §3
In order to determine the binding EC₅₀ of the variants on cells expressing cynomolgus ILT7, the antibodies were screened for binding on CynoILT7 CT-125 cells by flow cytometry. […] The graph in FIG. 3 represents the mean results from two independent experiments, and the table in FIG. 3 show the average EC₅₀.

[13] = molecular target: T4, HA-tagged human ILT7 on CT-550 cells; test: cell-based or functional assay
[14] = molecular target: T4, HA-tagged human ILT7 on CT-550 cells; test: flow cytometry on human ILT7-expressing cells, left panel 'Human ILT7', table 'Ec50 (nM)'
Experimental: as §3

[15] = molecular target: T2, cynomolgus ILT7; test: flow cytometry on cynomolgus ILT7-expressing cells, right panel 'Cyno ILT7', table 'Ec50 (nM)'
Experimental: as §3

[16] = molecular target: T2, cynomolgus ILT7; test: flow cytometry (MFI) on cynomolgus ILT7-expressing cells
Experimental: as §3

[17] = molecular target: T4, HA-tagged human ILT7 on CT-550 cells; test: flow cytometry (MFI) on human ILT7-expressing cells
Experimental: as §3
Anfucosylated version of ILT70080.6 was generated. […] The tables in FIG. 15 provide the mean results of three independent binding experiments measuring mean fluorescence intensity (MFI).

[18] = molecular target: T4, HA-tagged human ILT7 on CT-550 cells; test: flow cytometry on CT-550 cells expressing human ILT7, anti-human IgG DyLight 649 detection; mean of two experiments
Experimental: as §3
In order to determine the binding EC50 of ILT70019, ILT70028, ILT70052, ILT70076, ILT70080, ILT70083, ILT70089, ILT70100, ILT70137, ILT70142 and ILT70144 on cells expressing human ILT7, the candidates were screened for binding on CT-550 cells by flow cytometry. […]

[19] = molecular target: T2, cynomolgus ILT7; test: FMAT cell binding assay, CHO-K1 cells expressing cynomolgus ILT7, IgG
Text: (§4) This homogeneous assay assessed the binding of crude scFv supernatant samples or purified IgG to Chinese Hamster Ovary (CHO) cells expressing either human or cynomolgus ILT7 in a 384-well (Costar 3655) format. ScFv or Ab binding to cells was detected using a mouse anti-His/goat anti-mouse Alexafluor®-647 labelled antibody (Molecular Probes A21236) mix, or goat anti-human Alexafluor®-647 labelled antibody (Molecular Probes A21445) respectively. Plates were read on the Applied Biosystems Cellular Detection system 8200 reader. The Helium neon excitation laser was focused within 100 μm depth of the bottom of the well, scanning an area 1 mm². The cells settled at the bottom of the well, and upon laser excitation at 633 nm, those beads with fluorophore bound (where the local concentration of fluorophore is relatively high compared to unbound fluorophore) emitted a signal at 650-685 nm that was measured using photomultiplier tube-1 (PMT1). […] The presence of scFv or IgG samples binding to the cells at the bottom of the well caused an increase in Alexafluor-labeled detection antibody within the excitation depth. This was measured as an increase in fluorescence.
(§5) The cells used were CHO-Kl cells expressing either human or cynomolgus ILT7 that were cultured using standard tissue culture techniques. […]
(§6) Species cross-reactivity of anti-ILT7 antibodies was determined using FMAT binding assay. […]

[20] = molecular target: T3, human ILT7; test: FMAT cell binding assay, CHO-K1 cells expressing human ILT7, IgG
Text: as §4, §5, §6

T2 sequence (P59901 other isoform, or with tags, fused parts or gaps limits assumed): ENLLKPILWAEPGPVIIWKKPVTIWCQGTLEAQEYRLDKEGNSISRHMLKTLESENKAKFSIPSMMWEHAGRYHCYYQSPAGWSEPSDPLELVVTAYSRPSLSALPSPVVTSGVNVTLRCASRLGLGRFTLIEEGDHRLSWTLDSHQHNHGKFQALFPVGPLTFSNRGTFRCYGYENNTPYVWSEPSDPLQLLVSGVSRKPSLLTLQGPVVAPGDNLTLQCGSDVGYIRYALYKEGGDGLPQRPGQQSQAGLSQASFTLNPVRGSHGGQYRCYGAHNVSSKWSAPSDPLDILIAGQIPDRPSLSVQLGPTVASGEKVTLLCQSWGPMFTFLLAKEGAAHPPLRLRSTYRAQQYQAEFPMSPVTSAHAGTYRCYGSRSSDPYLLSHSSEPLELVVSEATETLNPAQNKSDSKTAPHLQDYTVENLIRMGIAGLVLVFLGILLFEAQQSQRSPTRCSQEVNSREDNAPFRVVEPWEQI
T3 sequence (P59901 24-499): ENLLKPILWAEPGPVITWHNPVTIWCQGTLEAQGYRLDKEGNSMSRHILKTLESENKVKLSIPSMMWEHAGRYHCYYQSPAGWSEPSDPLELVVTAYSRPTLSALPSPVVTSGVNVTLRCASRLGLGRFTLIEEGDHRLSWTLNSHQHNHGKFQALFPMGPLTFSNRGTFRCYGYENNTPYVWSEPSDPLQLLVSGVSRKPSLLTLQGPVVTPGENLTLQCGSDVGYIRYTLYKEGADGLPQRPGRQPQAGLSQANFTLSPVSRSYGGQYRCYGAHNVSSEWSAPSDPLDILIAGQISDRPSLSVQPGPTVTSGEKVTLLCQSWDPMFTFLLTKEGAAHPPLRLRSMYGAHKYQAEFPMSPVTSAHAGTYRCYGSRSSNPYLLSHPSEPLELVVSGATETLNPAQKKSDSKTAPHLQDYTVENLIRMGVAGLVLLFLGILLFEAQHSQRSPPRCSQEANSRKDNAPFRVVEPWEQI
T4 sequence (P59901 24-499): as above
T1 sequence (P59901 24-446 limits assumed): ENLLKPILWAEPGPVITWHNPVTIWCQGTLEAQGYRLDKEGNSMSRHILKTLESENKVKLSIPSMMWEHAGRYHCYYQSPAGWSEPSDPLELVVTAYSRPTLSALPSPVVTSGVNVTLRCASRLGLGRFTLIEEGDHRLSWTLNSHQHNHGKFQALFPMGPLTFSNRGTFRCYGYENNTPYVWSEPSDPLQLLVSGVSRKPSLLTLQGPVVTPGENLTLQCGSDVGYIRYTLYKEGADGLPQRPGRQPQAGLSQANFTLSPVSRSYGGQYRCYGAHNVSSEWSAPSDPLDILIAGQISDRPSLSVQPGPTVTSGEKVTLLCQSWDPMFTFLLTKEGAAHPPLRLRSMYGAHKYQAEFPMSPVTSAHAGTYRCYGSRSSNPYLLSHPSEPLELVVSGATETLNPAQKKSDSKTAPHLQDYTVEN

koff [1]: 0.0318 s⁻¹ | kon [1]: 186000 M⁻¹ s⁻¹ | ADCC EC50 [2]: 0.00189 nM | ADCC EC50 [3]: 0.00419 nM | EC50 [4]: 0.303 nM | Kd [5]: 171 nM | EC50 [6]: 2.15 nM
B1: afucosylated IgG1 ILT70137 (antibody, V domains shown)
VH: QVQLQQSGAEVKKPGASVKVSCKASGYTFTSYGISWVRQAPGQGLEWMGWISAYNGNTNYAQKLQGRVTMTTDTSTSTAYMELRSLRSDDTAVYYCARNGLWGWDSDAFDIWGRGTLVTVSS
VL: QSALTQPASVSGSPGQSITISCTGTSSDVGGYNYVSWYQQHPGKAPKLMIYDVSNRPSGVSNRFSGSKSGNTASLTISGLQAEDEADYYCSSYTSSSTVVFGGGTKVTVL
modifications: afucosylated (made as in Example 7: lacks the α-1,6 fucose moiety on the N-glycan at Asn-297 of the heavy chain)
notes: also called afucosylated ILT70137; Afuc IgG1 ILT70137

fold lower affinity than SBI28ch [7]: 3 fold
B2: 10D10 (antibody, V domains shown)
VH: EVQLVESGGGVVQPGRSLRLSCAASGFTFSTYPIEWVRQAPGQGLEWIGNFHLYNDDTKYNEKFKGRVTMTTDTSTSTVYMELSSLRSEDTAVYYCTRGDDYGMDYWGQGTLVTVSS
VL: NIQMTQSPSSLSASVGDRVTITCKASQNVRTAVAWYQQKPGKAPKRLIYLASNRHTGVPSRFSGSGSGTDFTLTISSLQSEDFATYYCLQHWNYPFTFGPGTKLEIK
notes: Humanized variant of SBI28 from a framework-shuffled Fab library

fold better EC50 than SBI28ch [8]: 14 fold | fold better EC50 than SBI28ch [9]: 2.2 fold | fold KD improvement over SBI28ch [10]: ~60 fold | EC50 [11]: 1.3 nM | EC50 [12]: 8.34 nM
B3: 7C7 (antibody, V domains shown)
VH: B2 VH with T31I, L53P, M104L
VL: B2 VL with K24D
notes: also called anti-ILT7 clone 7C7

ADCC EC50 [2]: 0.00051 nM | ADCC EC50 [13]: 0.001 nM | EC50 [14]: 0.34 nM | EC50 [15]: 0.4 nM
B4: afucosylated ILT70080 (antibody, V domains shown)
VH: QVQLVQSGAEVKAPGTSVKVSCKASGDSFRNYAVSWVRQAPGQGLEWMGAMMPSFGTREHSQQFNGRVTLSADESTSTAYLELSSLRYDDTAVYYCAGSRDYNAYHFWTGPPDFWGRGTLVTVSS
VL: SYELTQPPSVSVAPGKTAKISCGGDSVGSTSVHWYQQKPGQAPVMVMFYNSDRPSGIPERFSGSISGNTATLTISRVEAGDEADYYCQVWDTSSDHPEFGGGTKLTVL
modifications: afucosylated: lacks the α-1,6 fucose moiety on the N-glycan at Asn-297 of the heavy chain
notes: also called Afucosylated variant ITL70080

EC50 [16]: 0.366 nM | ADCC EC50 [2]: 0.00044 nM | ADCC EC50 [13]: 0.00112 nM | EC50 [17]: 0.152 nM
B5: afucosylated ILT70080.6 (antibody, V domains shown)
VH: B4 VH with A13K, T16S, N65Q, S71T, L81M, Y88S, D89E
VL: B4 VL with E3V, K19R, S21T, M45L, M47I, F48Y, I65N
modifications: afucosylated
notes: also called afucosylated ILT0080.6

binding result [18]: binds | binding result [19]: binds | binding result [20]: binds
B6: ILT70089 (antibody, V domains shown)
VH: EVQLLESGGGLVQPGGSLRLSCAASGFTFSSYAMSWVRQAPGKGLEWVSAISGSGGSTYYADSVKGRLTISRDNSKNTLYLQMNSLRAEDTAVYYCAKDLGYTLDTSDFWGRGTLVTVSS
VL: SYVLTQPPSASGSPGQGVTISCSGSSSNIGTNTVNWYLHVPGTAPKLLTYTNNQRPSGVQDRFSGSKSDTSASLAISGLQAEDEGDYYCATWDDSLNGLAFGGGTKLTVL
